Data reported in patent US20130344070A1 (SORRENTO THERAPEUTICS, published 2013).

Experiments:
murine CCR2 [1] = molecular target: T1, murine CCR2 (murine, UniProt P51683 1-373); experiment: flow cytometry on WEHI 274.1 cells (murine CCR2), PE anti-human IgG
T1 construct: whole, on cells; also called mouse CCR2; murine CCR2-expressing cells (WEHI 274.1)
Experimental: In this example, WEHI 274.1 cells were resuspended in FACS Buffer (2% Fetal Bovine Serum in PBS) at 1×10⁶ cells and […] of cell suspension was aliquoted into the wells of a 96-well plate. Plated cells were spun down and the supernatant discarded. Cells were resuspended in 30 μl FACS Buffer containing serially diluted anti-CCR2 IgGs in triplicate. Plates were incubated for 1 hr at 4° C., then washed 2× with FACS Buffer. Cells were resuspended in 50 μl goat anti-human IgG (γ-chain specific)-PE conjugated secondary antibody (Southern Biotech #2040-09) diluted 1:500 in FACS Buffer, incubated for 30 min at 4° C. and then washed 1× with FACS Buffer. The cells were resuspended in a final volume of 30 μl FACS Buffer and analyzed using the Intellicyt Flow Cytometer. Median fluorescence in the FL-2H channel was determined using FlowJo software and EC₅₀ values were determined by plotting the data in GraphPad Prism and analyzed using a variable slope non-linear regression.

murine CCR2 [2] = molecular target: T1, murine CCR2; experiment: cell-based or functional assay
[3] = molecular target: T2, human CCR2 (CC-Chemokine Receptor 2) (human, UniProt P41597 1-374); experiment: cell-based or functional assay
T2 sequence (P41597 whole entry): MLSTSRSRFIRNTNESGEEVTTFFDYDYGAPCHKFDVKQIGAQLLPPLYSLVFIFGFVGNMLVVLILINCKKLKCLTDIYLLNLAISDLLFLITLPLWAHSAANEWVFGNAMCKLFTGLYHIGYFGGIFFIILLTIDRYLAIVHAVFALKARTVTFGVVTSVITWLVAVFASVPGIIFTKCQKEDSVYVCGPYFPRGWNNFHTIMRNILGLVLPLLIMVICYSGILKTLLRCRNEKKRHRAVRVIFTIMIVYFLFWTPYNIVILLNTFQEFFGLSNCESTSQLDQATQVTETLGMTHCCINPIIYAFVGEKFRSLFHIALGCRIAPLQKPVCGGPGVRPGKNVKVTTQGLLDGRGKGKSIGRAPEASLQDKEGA

[4] = molecular target: T2, human CCR2 (CC-Chemokine Receptor 2); experiment: flow cytometry on CHO-huCCR2 cells, PE anti-human IgG
Experimental: The data in FIG. 1 illustrates in vitro data for cellular binding EC₅₀ measurements. […] In this example, CHO-CCR2 cells were lifted from culture flasks using non-enzymatic Cell Dissociation Buffer—PBS based (Life Technologies #13151-014). Cells were resuspended in FACS Buffer (2% Fetal Bovine Serum in PBS) at 1×10⁶ cells/ml and 100 μl (1×10⁵ cells) were aliquoted into the wells of a 96-well plate. Plated cells were spun down and the supernatant discarded. Cells were resuspended in 50 μl FACS Buffer containing the indicated concentrations of CCR2 D1 IgG in triplicate (FIG. 1). Plates were incubated for 1 hr at 4° C., then washed 1× with FACS Buffer. Cells were resuspended in 50 μl goat anti-human IgG (γ-chain specific)-PE conjugated secondary antibody (Southern Biotech #2040-09) diluted 1:500 in FACS Buffer. Cells were further incubated for 30 min at 4° C. and then washed 1× with FACS Buffer. The cells were resuspended in a final volume of 25 μl FACS Buffer and analyzed using the Intellicyt Flow Cytometer. Median fluorescence in the FL-2H channel was determined using FlowJo software and EC₅₀ value was determined by plotting the data in GraphPad Prism and analyzing using a variable slope non-linear regression.

[5] = molecular target: T2, human CCR2 (CC-Chemokine Receptor 2); experiment: cell-based or functional assay; remark: listed apart in the source
[6] = molecular target: T2, human CCR2 (CC-Chemokine Receptor 2); experiment: cell-based or functional assay; remark: listed apart in the source

T1 sequence (P51683 whole entry): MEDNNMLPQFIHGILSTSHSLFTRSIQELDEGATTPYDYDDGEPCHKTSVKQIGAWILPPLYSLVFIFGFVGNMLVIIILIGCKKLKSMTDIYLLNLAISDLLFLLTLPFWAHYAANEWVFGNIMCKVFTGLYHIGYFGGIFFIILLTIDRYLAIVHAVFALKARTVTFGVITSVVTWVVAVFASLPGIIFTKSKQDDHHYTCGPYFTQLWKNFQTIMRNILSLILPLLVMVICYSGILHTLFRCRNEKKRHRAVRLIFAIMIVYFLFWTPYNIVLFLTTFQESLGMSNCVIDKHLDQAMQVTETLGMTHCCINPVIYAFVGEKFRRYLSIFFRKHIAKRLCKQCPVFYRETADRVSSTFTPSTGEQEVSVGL

B1: D1-1/LO (antibody, V domains shown)
VH: QVQLVQSGAEVKKPGASVKVSCKASGYTFTGYYMHWVRQAPGQGLEWMGWINPNSGVTKYAQKFQGRVTMTRDTSTSTVYMELSSLRSEDTAVYYCATGGFGYWGEGTLVTVSS
VL: LPVLTQPPSVSKGLRQTATLTCTGNSNNVGNQGAAWLQQHQGQPPKLLSYRNHNRPSGVSERFSPSRSGDTSSLTITGLQPEDEADYYCLAWDSSLRAFVFGTGTKLTVL
notes: The suffix '/LO' is not explained
Murine CCR2 [1]
  EC50: 4800 pM
Murine CCR2 [2]
  IC50 in chemotaxis assay using mouse WEHI cells, ligand mouse MCP-1 (0.7 nM): 35 pM
[3]
  IC50 in chemotaxis assay using human THP-1 cells, ligand MCP-1 (3 nM): 130 pM
  IC50 in chemotaxis assay using human THP-1 cells, ligand MCP-3 (1.1 nM): 100 pM
[4]
  EC50: 130 pM

B2: 1G11 (antibody, human IgG1, V domains shown)
VH: EVQLVESGAEVKKPGASVKVSCKASGYIFTGYYIHWVRQAPGQGLEWMGWINPNNGVTKYAEKFQGRVTMTRDTSITTAYMDLSRLRSDDTAIYYCATGGFEYWGQGTLVTVSS
VL: LPVLTQPPSVSKGLRQTATLTCTGNSNNVGNQGAAWLQQHQGQPPKLLSYRNHNRPSGVSERFSPSRSGDTSSLTITGLQPEDEADYYCLAWDSSLRAFVFGTGTKLTVL
[5]
  IC50 in calcium flux assay using human THP-1 cells, ligand MCP-1 (2.5 nM): 750 pM
  IC50 in calcium flux assay using human THP-1 cells, ligand MCP-3 (22 nM): 250 pM
  IC50 in calcium flux assay using human THP-1 cells, ligand MCP-5 (0.43 nM): 560 pM
[3]
  IC50 in chemotaxis assay using human THP-1 cells, ligand MCP-1 (3 nM): 80 pM
  IC50 in chemotaxis assay using human THP-1 cells, ligand MCP-2 (6.7 nM): 160 pM
  IC50 in chemotaxis assay using human THP-1 cells, ligand MCP-3 (1.1 nM): 70 pM
  IC50 in chemotaxis assay using human THP-1 cells, ligand MCP-4 (35 nM): 60 pM
  IC50 in chemotaxis assay using human THP-1 cells, ligand MCP-5 (0.65 nM): 260 pM
[4]
  EC50: 340 pM
[6]
  IC50 on MCP-1 (3 nM) induced THP-1 cell migration: 79 pM
  IC50 on MCP-5 (6 ng/ml) induced THP-1 cell migration: 261 pM

B3: 1B2 (antibody, human IgG1, V domains shown)
VH: EVQLVESGAEVKKPGASVKVSCKASGYTFTGYYMNWVRQAPGQGLEWMGWINPNSGGTKYAQKFQGRVTMTSDTSINTAYMELSRLRYDDTAVYYCATGGFQHWGQGTLVTVSS
VL: LPVLTQPPSVSKGLRQTATLTCTGNSNNVGNQGAAWLQQHQGQPPKLLSYRNHNRPSGVSERFSPSRSGDTSSLTITGLQPEDEADYYCLAWDSSLRAFVFGTGTKLTVL
[5]
  IC50 in calcium flux assay using human THP-1 cells, ligand MCP-1 (2.5 nM): 920 pM
  IC50 in calcium flux assay using human THP-1 cells, ligand MCP-3 (22 nM): 290 pM
  IC50 in calcium flux assay using human THP-1 cells, ligand MCP-5 (0.43 nM): 890 pM
[3]
  IC50 in chemotaxis assay using human THP-1 cells, ligand MCP-1 (3 nM): 90 pM
  IC50 in chemotaxis assay using human THP-1 cells, ligand MCP-2 (6.7 nM): 60 pM
  IC50 in chemotaxis assay using human THP-1 cells, ligand MCP-3 (1.1 nM): 40 pM
  IC50 in chemotaxis assay using human THP-1 cells, ligand MCP-4 (35 nM): 50 pM
  IC50 in chemotaxis assay using human THP-1 cells, ligand MCP-5 (0.65 nM): 200 pM
[4]
  EC50: 360 pM
[6]
  IC50 on MCP-1 (3 nM) induced THP-1 cell migration: 87 pM
  IC50 on MCP-5 (3 nM) induced THP-1 cell migration: 197 pM

B4: 1B11 (antibody, V domains shown)
VH: QVQLVESGGGVVQPGRSLRLSCAASGFTFSSYAMHWVRQAPGKGLEWVAVISYDGSNKYYADSVKGRFTISRDNSKNTLYLQMNSLKAEDTAVYYCATAAAGPFDYWGQGTTVTVSS
VL: LPVLTQPPSVSKGLRQTATLTCTGNSNNVGNQGAAWLQQHQGQPPKLLSYRNHNRPSGVSERFSPSRSGDTSSLTITGLQPEDEADYYCLAWDSSLRAFVFGTGTKLTVL
notes: tested as IgG
[4]
  EC50: 2300 pM

B5: 1H5 (antibody, V domains shown)
VH: EVQLVQSGAEVKKPGASVKVSCKASGYTFTSYYMHWVRQAPGQGLEWMGIINPSGGSTSYAHKFQGRVTMTRDTSTSTVYMELSSLRSEDTAVYYCARGGHVLRFLEWLGLEGPFDYWGQGTLVTVSS
VL: LPVLTQPPSVSKGLRQTATLTCTGNSNNVGNQGAAWLQQHQGQPPKLLSYRNHNRPSGVSERFSPSRSGDTSSLTITGLQPEDEADYYCLAWDSSLRAFVFGTGTKLTVL
notes: tested as IgG
[4]
  EC50: 1300 pM
[6]
  IC50 on MCP-1 (3 nM) induced THP-1 cell migration: 109 pM
  IC50 on MCP-2 (30 ng/ml) induced THP-1 cell migration: 1900 pM
  IC50 on MCP-3 (6 ng/ml) induced THP-1 cell migration: 2600 pM
  IC50 on MCP-4 (200 ng/ml) induced THP-1 cell migration: 1400 pM
  IC50 on MCP-5 (6 ng/ml) induced THP-1 cell migration: 349 pM

B6: D1-7/LO (antibody, V domains shown)
VH: QVQLVQSGAEVKKPGASVKVSCKASGYTFTGYYMHWVRQAPGQGLEWMGWINPNSGVTKYAQKFQGRVTMTRDTSTSTVYMELSSLRSEDTAVYYCATGSGGGTMDVWGEGTLVTVSS
VL: LPVLTQPPSVSKGLRQTATLTCTGNSNNVGNQGAAWLQQHQGQPPKLLSYRNHNRPSGVSERFSPSRSGDTSSLTITGLQPEDEADYYCLAWDSSLRAFVFGTGTKLTVL
notes: tested as IgG. '/LO' not explained
[4]
  EC50: 80 pM

B7: 1A2 (antibody, V domains shown)
VH: EVQLVQSGAEVKKPGASVKVSCKASGYTFTSYYMHWVRQAPGQGLEWMGIINPSGGSTSYAQKFQGRVTMTRDTSTSTVYMELSSLRSEDTAVYYCATGSGGGTMDVWGQGTTVTVSS
VL: LPVLTQPPSVSKGLRQTATLTCTGNSNNVGNQGAAWLQQHQGQPPKLLSYRNHNRPSGVSERFSPSRSGDTSSLTITGLQPEDEADYYCLAWDSSLRAFVFGTGTKLTVL
notes: tested as IgG
[4]
  EC50: 2900 pM

B8: D1-6/LO (antibody, V domains shown)
VH: QVQLVQSGAEVKKPGASVKVSCKASGYTFTGYHMHWVRQAPGQGLEWMGIINPSSGSTKYAQKFQGRVTMTRDTSTSTVYMELSSLRSEDTAVYYCATGGFGYWGEGTLVTVSS
VL: LPVLTQPPSVSKGLRQTATLTCTGNSNNVGNQGAAWLQQHQGQPPKLLSYRNHNRPSGVSERFSPSRSGDTSSLTITGLQPEDEADYYCLAWDSSLRAFVFGTGTKLTVL
notes: as for B6
[4]
  EC50: 3500 pM

B9: D1-2/LO (antibody, V domains shown)
VH: QVQLVQSGAEVKKPGASVKVSCKASGYTFTGYHMHWVRQAPGQGLEWMGIINPSGGSTSYAQKFQGRVTMTRDTSTSTVYMELSSLRSEDTAVYYCATGGFGYWGEGTLVTVSS
VL: LPVLTQPPSVSKGLRQTATLTCTGNSNNVGNQGAAWLQQHQGQPPKLLSYRNHNRPSGVSERFSPSRSGDTSSLTITGLQPEDEADYYCLAWDSSLRAFVFGTGTKLTVL
notes: as for B6
Murine CCR2 [1]
  EC50: 81000 pM
[4]
  EC50: 16000 pM

B10: D1-4/LO (antibody, V domains shown)
VH: QVQLVQSGAEVKKPGASVKVSCKASGYTFTGYYMHWVRQAPGQGLEWMGIINPSGGSTSYAQKFQGRVTMTRDTSTSTVYMELSSLRSEDTAVYYCATGGFGYWGEGTLVTVSS
VL: LPVLTQPPSVSKGLRQTATLTCTGNSNNVGNQGAAWLQQHQGQPPKLLSYRNHNRPSGVSERFSPSRSGDTSSLTITGLQPEDEADYYCLAWDSSLRAFVFGTGTKLTVL
notes: as for B6
[4]
  EC50: 1600 pM

B11: 43D12 (antibody, V domains shown)
VH: EVQLVESGGGLVQPGGSLRLSCVASGFTFSDYWMSWVRQAPGKGLEWVANIKKDGSVNYYVDSVKGRFTISRDNAKNSLYLQMNSLRAEDTAVYYCTRFDYWGQGTLVTVSS
VL: QAGLTQPPSVSKGLRQTATLTCTGNSNNVGNQGAAWLQQHQGHPPKLLFYRNNNRASGISERLSASRSGNTASLTITGLQPEDEADYYCLTWDSSLSVVVFGGGTKLTVL
notes: tested as IgG; 27/28 '43D12'; the text calls the same pair '43G12'; also called 43G12
[4]
  EC50: 1800 pM

B12: 42G7 (antibody, V domains shown)
VH: QVQLVQSGAEVKKPGASVKVSCKASGYTFSSYYMHWVRQAPGQGLEWMGIINPSGGNTSYAQKFQGRVTMTRDTSTSTVYMELSSLRSEDTAVYYCARGGYQLPHGRARAFDMWGQGTMVTVSS
VL: AIRMTQSPLSLPVTLGQPASISCTSSQSLVYRDGTTYLNWFQQRPGQSPRRLIYKVSNRDSGVPDRFTGSGSGTTFTLTISRVEAEDVGIYYCMQGTHWPLTFGQGTKVEI
notes: tested as IgG
[4]
  EC50: 15000 pM

B13: 54A9 (antibody, V domains shown)
VH: VQLVESGAEVKKPGASVKVSCKASGYTFSSHYMHWVRQAPGQGLEWMGIINPSGGSTIYAQKFQGRVTINADESTSTAYMELSSLGSDDTAVYYCARAAGGAVAGHGARFDYWGQGTLVTVSS
VL: LPVLTQPASVSGSPGQSITISCTGTSSDVGGYNYVSWYQQHPGKAPKLMIYDVSNRPSGVSNRFSGSKSGNTASLTISGLQAEDEADYYCSSYRRSSTLVFGGGTKLTVL
notes: tested as IgG
[4]
  EC50: 530 pM
